From patent US20210130436A1 (published 2021) come the findings set out here.

Substitutions are numbered along the chain they refer to. In names and notes the source's numbering stands.

Sequences and labels used below:
B1: CD80 IgV-Fc T13R/Q33L/E35D/M47V/T62S/V68M/L85M (Fc fusion, not shown: a dimerising Fc or GST)
chain: VIHVTKEVKEVARLSCGHNVSVEELAQTRIYWLKDKKMVLTMMSGDVNIWPEYKNRTIFDISNNLSIMILALRPSDEGTYECVVMKYEKDAFKREHLAEVTLSVKAD
B2: CD80 IgV-Fc T13R/Q33R/E35D/M38I/M47L/V68M/E95V/L97Q (Fc fusion, not shown: a dimerising Fc or GST)
chain: B1 chain with L33R, M38I, V47L, S62T, M85L, E95V, L97Q
B3: CD80 IgV-Fc T13R/Q33R/E35D/M47L/V68M/L85M (Fc fusion, not shown: a dimerising Fc or GST)
chain: B1 chain with L33R, V47L, S62T
B4: CD80 IgV-Fc T13R/Q33R/E35D/M47L/V68M (Fc fusion, not shown: a dimerising Fc or GST)
chain: B1 chain with L33R, V47L, S62T, M85L
B5: CD80 IgV-Fc T13R/Q33R/E35D/M38I/M47L/V68M/L85M (Fc fusion, not shown: a dimerising Fc or GST)
chain: B1 chain with L33R, M38I, V47L, S62T
B6: CD80 E35D/D46V/M47V/V68M/L85Q IgV-Fc (Fc fusion, not shown: small tags and cut ends; a dimerising Fc or GST)
chain: B1 chain with R13T, L33Q, D46V, S62T, M85Q
B7: CD80 M47V/N48K/V68M IgV-Fc (Fc fusion, not shown: small tags and cut ends; a dimerising Fc or GST)
chain: B1 chain with R13T, L33Q, D35E, N48K, S62T, M85L
B8: CD80 E35D/D46V/M47V/N48K/V68M IgV-Fc (Fc fusion, not shown: small tags and cut ends; a dimerising Fc or GST)
chain: B1 chain with R13T, L33Q, D46V, N48K, S62T, M85L
B9: CD80 N48K/V68M IgV-Fc (Fc fusion, not shown: small tags and cut ends; a dimerising Fc or GST)
chain: B1 chain with R13T, L33Q, D35E, V47M, N48K, S62T, M85L
B10: CD80 E35D/N48K/K89N IgV-Fc (Fc fusion, not shown: small tags and cut ends; a dimerising Fc or GST)
chain: B1 chain with R13T, L33Q, V47M, N48K, S62T, M68V, M85L, K89N
B11: CD80 M47V/N48K/K89N IgV-Fc (Fc fusion, not shown: small tags and cut ends; a dimerising Fc or GST)
chain: B1 chain with R13T, L33Q, D35E, N48K, S62T, M68V, M85L, K89N
B12: CD80 E35D/M47V/N48K/K89N IgV-Fc (Fc fusion, not shown: small tags and cut ends; a dimerising Fc or GST)
chain: B1 chain with R13T, L33Q, N48K, S62T, M68V, M85L, K89N
B13: CD80 E35D/M47V/V68M/L85Q/K89N IgV-Fc (Fc fusion, not shown: small tags and cut ends; a dimerising Fc or GST)
chain: B1 chain with R13T, L33Q, S62T, M85Q, K89N
B14: CD80 E35D/M47V/N48K/V68M/L85Q IgV-Fc (Fc fusion, not shown: small tags and cut ends; a dimerising Fc or GST)
chain: B1 chain with R13T, L33Q, N48K, S62T, M85Q

T3 sequence (Q9NZQ7 19-290): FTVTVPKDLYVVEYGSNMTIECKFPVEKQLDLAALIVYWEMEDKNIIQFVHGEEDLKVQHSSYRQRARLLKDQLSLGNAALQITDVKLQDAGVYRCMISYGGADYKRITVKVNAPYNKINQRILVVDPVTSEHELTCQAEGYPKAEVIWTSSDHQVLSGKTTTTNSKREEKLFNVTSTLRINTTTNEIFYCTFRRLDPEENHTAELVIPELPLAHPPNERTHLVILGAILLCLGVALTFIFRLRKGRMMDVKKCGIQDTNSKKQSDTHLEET
T1 sequence (P16410 36-223): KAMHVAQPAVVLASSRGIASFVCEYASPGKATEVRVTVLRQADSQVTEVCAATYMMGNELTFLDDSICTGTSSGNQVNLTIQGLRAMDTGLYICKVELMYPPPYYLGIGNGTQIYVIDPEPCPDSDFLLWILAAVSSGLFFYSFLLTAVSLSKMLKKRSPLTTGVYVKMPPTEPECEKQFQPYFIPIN

One assay concerns the target T1, human CTLA-4 (human, UniProt P16410 36-223).
T1 construct: also called huCTLA4
The assay is described as follows: flow cytometry, CHO cells stably expressing CTLA4. Background: Flow cytometry measures light scatter and fluorescence of single cells or particles in a stream.
Regarding B1, the “Fold change to WT CD80” value amounted to 0.1 fold and the “MFI at 33.3 nM” value amounted to 105 MFI.

As for B2, the “Fold change to WT CD80” value amounted to 11.8 fold and the “MFI at 33.3 nM” value stood at 20700 MFI.

For the molecule B3, the “Fold change to WT CD80” value is 7.7 fold and the “MFI at 33.3 nM” value worked out at 13400 MFI.

Regarding B4, the “Fold change to WT CD80” value amounted to 11.8 fold and the “MFI at 33.3 nM” value was 20700 MFI.

For B5, the “Fold change to WT CD80” value was 12.6 fold and the “MFI at 33.3 nM” value amounted to 22000 MFI.

Another assay deals with T2, human PD-L1 expressed on CHO cells (human, UniProt Q9NZQ7 19-290).
T2 construct: whole, on cells; Target on CHO cells stably expressing PD-L1; also called huPD-L1
T2 sequence (Q9NZQ7 19-290): as the sequence (Q9NZQ7 19-290) above
The assay is described as follows: flow cytometry; MFI on PD-L1 cells over MFI on CD28 (Jurkat) cells at 33.3 nM.
Turning to B6, the “Ratio of PDL1:CD28” value was 79.4 ratio.

B7: the “Ratio of PDL1:CD28” value was found to be 22.6 ratio.

With B8, the “Ratio of PDL1:CD28” value stood at 23.9 ratio.

Regarding B9, the “Ratio of PDL1:CD28” value was 6.4 ratio.

B10: the “Ratio of PDL1:CD28” value turned out to be 14 ratio.

B11: the “Ratio of PDL1:CD28” value was found to be 6.5 ratio.

Take B12: the “Ratio of PDL1:CD28” value is 9.5 ratio.

On to B13, for which the “Ratio of PDL1:CD28” value was found to be 49.1 ratio.

For B14, the “Ratio of PDL1:CD28” value is 88.8 ratio.

For a further assay, the target named is T2, human PD-L1 expressed on CHO cells. The assay is described as follows: flow cytometry, CHO cells stably expressing PD-L1; MFI relative to WT CD80 ECD-Fc (Abcam).
As to B6, the “Fold change to WT CD80” value stood at 205 fold.

With B7, the “Fold change to WT CD80” value turned out to be 113 fold.

For B8, the “Fold change to WT CD80” value was 203 fold.

On to B9, for which the “Fold change to WT CD80” value was 5.9 fold.

As for B10, the “Fold change to WT CD80” value was found to be 45 fold.

Regarding B11, the “Fold change to WT CD80” value was 18.5 fold.

B12: the “Fold change to WT CD80” value is 52.1 fold.

B13: the “Fold change to WT CD80” value stood at 94.4 fold.

With B14, the “Fold change to WT CD80” value turned out to be 81.9 fold.

A further assay has as its target T3, human PD-L1 (human, UniProt Q9NZQ7 19-290).
T3 construct: also called huPD-L1; CD274
The assay is described as follows: flow cytometry; PD-L1 MFI over CD28 MFI.
Consider B1, for which the “Ratio of PDL1:CD28” value came to 248 ratio.

For the molecule B2, the “Ratio of PDL1:CD28” value turned out to be 17.2 ratio.

Consider B3, for which the “Ratio of PDL1:CD28” value turned out to be 169 ratio.

On to B4, for which the “Ratio of PDL1:CD28” value is 1040 ratio.

On to B5, for which the “Ratio of PDL1:CD28” value stood at 77.9 ratio.

The target of the next assay is T4, human CTLA4 expressed on CHO cells (human, UniProt P16410 36-223).
T4 construct: whole, on cells; Target on CHO cells stably expressing CTLA4; also called huCTLA4
T4 sequence (P16410 36-223): as the sequence (P16410 36-223) above
The assay is described as follows: flow cytometry, CHO cells stably expressing CTLA4; MFI relative to WT CD80 ECD-Fc (Abcam).
With B6, the “Fold change to WT CD80” value is 0.9 fold.

As for B7, the “Fold change to WT CD80” value is 0.9 fold.

With B8, the “Fold change to WT CD80” value is 0.6 fold.

Consider B9, for which the “Fold change to WT CD80” value came to 0.1 fold.

Consider B10, for which the “Fold change to WT CD80” value amounted to 0.9 fold.

In the case of B11, the “Fold change to WT CD80” value turned out to be 1 fold.

For B12, the “Fold change to WT CD80” value was 1.1 fold.

For the molecule B13, the “Fold change to WT CD80” value is 0.7 fold.

Take B14: the “Fold change to WT CD80” value was 0.6 fold.

A further assay addresses T5, CD28 endogenously expressed on Jurkat/IL2 reporter cells (human, UniProt P10747 19-220).
T5 construct: whole, on cells; Target on Jurkat cells; also called Jurkats (CD28)
The assay is described as follows: flow cytometry, Jurkat cells (CD28); MFI relative to WT CD80 ECD-Fc (Abcam).
B6: the “Fold change to WT CD80” value amounted to 0.5 fold.

As for B7, the “Fold change to WT CD80” value was 0.9 fold.

With B8, the “Fold change to WT CD80” value worked out at 1.5 fold.

Consider B9, for which the “Fold change to WT CD80” value was 0.2 fold.

Take B10: the “Fold change to WT CD80” value is 0.6 fold.

Regarding B11, the “Fold change to WT CD80” value came to 0.5 fold.

For the molecule B12, the “Fold change to WT CD80” value was found to be 1 fold.

B13: the “Fold change to WT CD80” value came to 0.3 fold.

In the case of B14, the “Fold change to WT CD80” value was found to be 0.2 fold.

The target of the next assay is T3, human PD-L1. The assay is described as follows: flow cytometry, CHO cells stably expressing PD-L1.
As for B1, the “Fold change to WT CD80” value was found to be 77 fold and the “MFI at 33.3 nM” value came out at 3970 MFI.

As for B2, the “Fold change to WT CD80” value came out at 372 fold and the “MFI at 33.3 nM” value worked out at 19200 MFI.

Regarding B3, the “Fold change to WT CD80” value came out at 368 fold and the “MFI at 33.3 nM” value came out at 18900 MFI.

With B4, the “Fold change to WT CD80” value was determined as 285 fold and the “MFI at 33.3 nM” value is 14700 MFI.

With B5, the “Fold change to WT CD80” value worked out at 21.5 fold and the “MFI at 33.3 nM” value came to 1110 MFI.

Another assay concerns the target T4, human CTLA4 expressed on CHO cells. The assay is described as follows: flow cytometry, CHO cells stably expressing CTLA4, Fc fusion at 33.3 nM.
Turning to B6, the “MFI at 33.3 nM” value is 36500 MFI.

Consider B7, for which the “MFI at 33.3 nM” value came to 34600 MFI.

With B8, the “MFI at 33.3 nM” value is 23900 MFI.

As for B9, the “MFI at 33.3 nM” value is 2340 MFI.

Regarding B10, the “MFI at 33.3 nM” value was found to be 34700 MFI.

Turning to B11, the “MFI at 33.3 nM” value amounted to 42100 MFI.

On to B12, for which the “MFI at 33.3 nM” value was determined as 43800 MFI.

Turning to B13, the “MFI at 33.3 nM” value was determined as 30300 MFI.

For the molecule B14, the “MFI at 33.3 nM” value is 26100 MFI.

Another assay has as its target T5, CD28 endogenously expressed on …. The assay is described as follows: flow cytometry, Jurkat cells (CD28), Fc fusion at 33.3 nM.
Regarding B6, the “MFI at 33.3 nM” value was found to be 331 MFI.

For B7, the “MFI at 33.3 nM” value is 641 MFI.

For B8, the “MFI at 33.3 nM” value is 1080 MFI.

As for B9, the “MFI at 33.3 nM” value was found to be 118 MFI.

B10: the “MFI at 33.3 nM” value stood at 411 MFI.

For B11, the “MFI at 33.3 nM” value was 366 MFI.

Turning to B12, the “MFI at 33.3 nM” value stood at 701 MFI.

B13: the “MFI at 33.3 nM” value was 246 MFI.

B14: the “MFI at 33.3 nM” value was found to be 118 MFI.

Another assay has as its target human CD28 (human, UniProt P10747 19-220). The assay is described as follows: flow cytometry, Jurkat cells (CD28).
For B1, the “Fold change to WT CD80” value stood at 0.5 fold and the “MFI at 33.3 nM” value is 16 MFI.

Turning to B2, the “Fold change to WT CD80” value came to 35.4 fold and the “MFI at 33.3 nM” value came out at 1110 MFI.

As to B3, the “Fold change to WT CD80” value was determined as 3.6 fold and the “MFI at 33.3 nM” value was 112 MFI.

Consider B4, for which the “Fold change to WT CD80” value was 0.4 fold and the “MFI at 33.3 nM” value came out at 14.1 MFI.

As for B5, the “Fold change to WT CD80” value stood at 0.5 fold and the “MFI at 33.3 nM” value came out at 14.2 MFI.

The target of a further assay is T2, human PD-L1 expressed on CHO cells. The assay is described as follows: flow cytometry, CHO cells stably expressing PD-L1, Fc fusion at 33.3 nM.
For the molecule B6, the “MFI at 33.3 nM” value amounted to 26300 MFI.

As for B7, the “MFI at 33.3 nM” value came out at 14500 MFI.

For B8, the “MFI at 33.3 nM” value came to 25900 MFI.

Regarding B9, the “MFI at 33.3 nM” value stood at 754 MFI.

Take B10: the “MFI at 33.3 nM” value was determined as 5770 MFI.

Turning to B11, the “MFI at 33.3 nM” value turned out to be 2370 MFI.

Consider B12, for which the “MFI at 33.3 nM” value is 6670 MFI.

Consider B13, for which the “MFI at 33.3 nM” value came to 12100 MFI.

For B14, the “MFI at 33.3 nM” value stood at 10500 MFI.
